Data published in the supplement of paper PMC7877785.
± gives the uncertainty stated by the source.

Assay: self-splicing fitness, log relative to wild type (ln ratio); higher = more splicing; Tetrahymena group I intron in knt gene, E. coli kanamycin selection, DiMSum; sequences stand for … in CUCUCU…GGAGGGAAAAGUUAUCAGGCAUGCACCUGGUAGCUAGUCUUUAAACCAAUAGAUUGCAUCGGUUUAAAAGGCAAGACCGUCAAAUUGCGGGAAAGGGGUCAACAGCCGUUCAGUACCAAGUCUCAGGGGAAACUUUGAGAUGGCCUUGCAAAGGGUAUGGUAAUAAGCUGACGGACAUGGUCCUAACCACGCAGCCAAGUCCUAAGUCAACAGAUCUUCUGUUGAUAUGGAUGCAGUUCACAGACUAAAUGUCGGUCGGGGAAGAUGUAUUCUUCUCAUAAGAUAUAGUCGGACCUCUCCUUAAUGGGAGCUAGCGGAUGAAGUGAUGCAACACUGGAGCCGCUGGGAACUAAUUUGUAUGCGAAAGUAUAUUGAUUAGUUUUGGAGUACUCGUGGUCG
In short: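 Library with all eight P1ex-region intron nucleotides randomised, intron inside the knt kanamycin-resistance gene on pET-22b(+), in E. coli BL21(DE3). Cells grew overnight at 37°C or 30°C on LB agar with or without 25 μg/mL kanamycin (plus 100 μg/mL carbenicillin, 50 μM IPTG, 0.2% rhamnose), in six replicate transformations. Pooled colonies were amplicon-sequenced on Illumina HiSeq 2500. DiMSum fitness is the error-weighted combination of wild-type-normalised replicate fold changes, kanamycin versus none.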

Sequence	self-splicing fitness (ln) (30 °C)	self-splicing fitness (ln) (37 °C)
AGUUAGCAAUAUUACGAUUG	-3.3 ± 0.27	-1.84 ± 0.24
AGUUAGCAAUAUUACGCAAC	-2.75 ± 0.24	-3.1 ± 0.37
AGUUAGCAAUAUUACGCAAG	-2.63 ± 0.12	-1.24 ± 0.13
AGUUAGCAAUAUUACGCAUC	-3.63 ± 0.43	-1.68 ± 0.23
AGUUAGCAAUAUUACGCCAA		-1.58 ± 0.43
AGUUAGCAAUAUUACGCGAG	-2.52 ± 0.22	-1.52 ± 0.21
AGUUAGCAAUAUUACGCUUA	-1.3 ± 0.15	-0.343 ± 0.16
AGUUAGCAAUAUUACGGAAA	-2.89 ± 0.35	-2.55 ± 0.44
AGUUAGCAAUAUUACGGAAU	-3.73 ± 0.46	-2 ± 0.43
AGUUAGCAAUAUUACGGCGA	0.115 ± 0.16	0.709 ± 0.16
AGUUAGCAAUAUUACGGCGG	-0.53 ± 0.085	-0.514 ± 0.13
AGUUAGCAAUAUUACGGCUU	-2.22 ± 0.23	-1.04 ± 0.22
AGUUAGCAAUAUUACGGGCA	-0.103 ± 0.13	-0.162 ± 0.15
AGUUAGCAAUAUUACGGUAA	-2.21 ± 0.17	-1.53 ± 0.12
AGUUAGCAAUAUUACGGUGG	-1.16 ± 0.18	-2.42 ± 0.27
AGUUAGCAAUAUUACGUACC	-0.585 ± 0.24	-0.376 ± 0.28
AGUUAGCAAUAUUACGUGUC	-2.09 ± 0.33	-1.42 ± 0.36
AUAAAGCAAUAUUACGAAUA	-0.578 ± 0.14	-0.302 ± 0.26
AUAAAGCAAUAUUACGAGAG	-2.29 ± 0.18	-1.03 ± 0.15
AUAAAGCAAUAUUACGAGGA	-3.28 ± 0.23	-1.74 ± 0.19
AUAAAGCAAUAUUACGAGUU	-1.9 ± 0.081	-0.509 ± 0.085

Sequence	self-splicing fitness (ln) (30 °C)	self-splicing fitness (ln) (37 °C)
AUAAAGCAAUAUUACGAUCA	0.0672 ± 0.054	0.203 ± 0.077
AUAAAGCAAUAUUACGAUCU	0.387 ± 0.11	0.308 ± 0.097
AUAAAGCAAUAUUACGAUUC	-0.837 ± 0.085	-0.228 ± 0.097
AUAAAGCAAUAUUACGCCUC	-0.875 ± 0.14	-0.532 ± 0.2
AUAAAGCAAUAUUACGCGCG	-0.354 ± 0.09	0.713 ± 0.12
AUAAAGCAAUAUUACGCUAC	-3.14 ± 0.25	-2.99 ± 0.33
AUAAAGCAAUAUUACGGGAA	-1.08 ± 0.097	-0.426 ± 0.14
AUAAAGCAAUAUUACGUAAC	-1.92 ± 0.13	-0.901 ± 0.17
AUAAAGCAAUAUUACGUAUU	-2.73 ± 0.12	-1.79 ± 0.13
AUAAAGCAAUAUUACGUCUC	-1.4 ± 0.093	-0.541 ± 0.13
AUAAAGCAAUAUUACGUCUU	0.183 ± 0.05	0.29 ± 0.073
AUAAAGCAAUAUUACGUUCG	-0.321 ± 0.085	0.17 ± 0.13
AUAAAGCAAUAUUACGUUGA	-2.1 ± 0.095	-1.77 ± 0.13
AUACAGCAAUAUUACGAACG	-0.79 ± 0.12	-1.44 ± 0.17
AUACAGCAAUAUUACGAAUU	-2.71 ± 0.15	-1.16 ± 0.14
AUACAGCAAUAUUACGACCC	-1.1 ± 0.21	-0.179 ± 0.17
AUACAGCAAUAUUACGAGUC	-3.23 ± 0.19	-2.57 ± 0.19
AUACAGCAAUAUUACGAUUU	-0.0463 ± 0.053	0.498 ± 0.073
AUACAGCAAUAUUACGCACA	-0.789 ± 0.11	0.62 ± 0.12
AUACAGCAAUAUUACGCAUG	-1.44 ± 0.094	-0.421 ± 0.12
AUACAGCAAUAUUACGCCCU	-0.0578 ± 0.06	-0.247 ± 0.072
